Laboratory results taken from US11485776B2, “Antibodies against infectious diseases” (priority 2015, dated 2022).
Entries after “also recorded” stand apart in the source; their conditions may differ.

Experiments:
C. albicans [1] = assay: C. albicans growth on YPD agar plate; assay type: cell-based; settings: 0.5 mg/ml antibody pre-incubated 1 hr, 10x dilutions spotted
Protocol: (A) C. albicans were cultured in YPD medium overnight at 37° C. 10^8 cfu/ml of C. albicans was mixed with equal volume of 0.5 mg/ml anti-CaENO1 IgY, 0.5 mg/ml CaS1 scFv or 1×PBS, respectively, at room temperature for 1 hr. 1 ul of each mixture in 10× dilutions was spotted on YPD agar plate and incubated at 37° C. overnight. (B) 10^3 cfu of C. albicans was mixed with PBS (control), 10 or 100 µg/ml CaS1 scFv at room temperature for 1 hr. 1 ul of each mixture was spotted on YPD agar plate and incubated at 37° C. for 5 days. The hyphal formation was observed under the microscope.
To determine the effect of scFv antibodies on the cell growth and hyphal formation, anti-CaENO1 IgY (0.5 mg/ml) or CaS1 scFv (0.5 mg/ml) or PBS were pre-incubated with C. albicans (1×10^6 cfu) for 1 hr at 37° C. After incubation, 1 ul of each mixture in 10-fold dilutions was spotted on YPD agar plate and incubated at 37° C. overnight. 10^3 cfu of C. albicans was mixed with 0 (1×PBS control), 10 or 100 µg/ml CaS1 scFv at room temperature for 1 hr. Thereafter, 1 ul of each mixture was spotted on YPD agar plate and incubated at 37° C. for 5 days. […].
We evaluated the influence of CaS1 on growth of C. albicans, we pre-incubated CaS1 scFv with C. albicans and plated on the agar.

[2] = molecular target: T1, alpha-enolase on the surface of C. albicans (Candida albicans, UniProt P30575); assay: Immunofluorescence staining of C. albicans; assay type: cell-based
T1 construct: endogenous in cells; host or cells: C. albicans SC 5314 and clinical isolates CA6-17, CA7-26, CA7-3, CA10-50, CA7-30, CA10-65
T1 sequence (P30575 whole entry): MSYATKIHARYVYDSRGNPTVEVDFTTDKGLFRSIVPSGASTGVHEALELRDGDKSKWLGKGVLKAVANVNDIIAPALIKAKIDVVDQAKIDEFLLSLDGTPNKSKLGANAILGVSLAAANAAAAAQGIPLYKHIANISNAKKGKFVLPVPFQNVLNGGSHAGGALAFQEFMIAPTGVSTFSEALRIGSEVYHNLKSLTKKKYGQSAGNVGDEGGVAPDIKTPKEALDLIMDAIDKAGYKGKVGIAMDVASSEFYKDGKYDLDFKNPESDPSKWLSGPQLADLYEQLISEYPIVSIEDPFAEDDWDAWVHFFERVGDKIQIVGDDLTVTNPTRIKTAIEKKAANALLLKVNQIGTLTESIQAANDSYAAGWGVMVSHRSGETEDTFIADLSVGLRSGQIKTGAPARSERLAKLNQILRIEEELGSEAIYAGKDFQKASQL
Excerpt: Anti-CaENO1 antibodies were used to detect alpha-enolase protein on C. albicans cell surface ENO1. (1) Detected with anti-CaENO1 IgY and developed by FITC conjugation rabbit anti-chicken antibodies. (2) Detected with scFv CaS1 and developed by goat anti-chicken light chain antibodies and FITC rabbit anti-goat antibodies. (3) An irrelevant scFv was used on negative control.
Anti-CaENO1 IgY, scFv CaS1 and control scFv were used in immunofluorescence assay for identification of CaS1 antibody to alpha-enolase on cell surface of C. albicans.

CaENO1 = molecular target: T2, CaENO1 (Candida albicans, UniProt P30575); assay type: binding, C. albicans
T2 construct: using full-length CaENO1 (1323 bp) as template; His (N); made in house; host or cells: E. coli BL21
T2 sequence (P30575 whole entry): as above
Protocol: (A) Purified CaS1 scFv was used to recognize recombinant CaENO1 protein. The CaS1 scFv were used as primary antibody with series dilution. The goat anti-chicken light chain IgG was used as secondary antibody. The HRP conjugated donkey anti-goat IgG was used to decet. (B) OD value was calculated into percentage. […] The goat anti-chicken light chain IgG was used as secondary antibody. The HRP conjugated donkey anti-goat IgG was used to detect. (D) We calculated OD value into percentage.
The goat anti-chicken light chain IgG was used as secondary antibody. The HRP conjugated donkey anti-goat IgG was used to decet. (B, D) OD value was calculated into percentage. […] ELISA data were represented as mean±SD of the duplicated well.
After vigorous washings, the bound IgY antibodies were detected by adding HRP-conjugated polyclonal donkey anti-chicken IgY antibodies (1:3,000) (Bethyl Laboratories, Montgomery, Tex., USA) while the bound CaS1 scFv antibodies were detected by goat anti-chicken light chain antibodies (1:3,000) (Bethyl Laboratories, Montgomery, Tex., USA), followed by HRP-conjugated donkey anti-goat IgG antibodies (Jackson ImmunoResearch, USA). After washing as above, a tetramethylbenzidine (TMB) substrate solution (Sigma, USA) was added to the wells for color development. The reaction was stopped with 1 N HCl and optical density was measured at 450 nm using an ELISA plate reader (BioTek Synergy HT). Dissociate constant (KD) was calculated according to the equation, grams/molecular weight (Da)×volume (L)^−1.
The goat anti-chicken light chain IgG was used as secondary antibody. The HRP conjugated donkey anti-goat IgG was used to decet (see FIGS. 14 (A) and (C)). OD value was calculated into percentage. […] ELISA data were represented as mean±SD of the duplicated well (see FIGS. 14 (B) and (D)).

C. albicans [3] = assay: Mouse model of C. albicans infection (survival); assay type: in vivo, ICR mice; settings: for survival rate: ICR mice; for Protection against lethal challenge of C. albicans in mice: mouse, in vivo
Protocol: The mice were grouped and challenged with the mixture of 10^6 of C. albicans containing 10 ug and 100 ug CaS1 scFv, 100 ug anti-DA scFv (unrelated scFv control) or 1×PBS, respectively. The survival of mice was monitored at 1 day intervals for 10 days.
A total of 20 ICR female mice (purchased from National Laboratory Animal Center, Taiwan) weighing about 30 g were randomly grouped with 5 mice in each group. C. albicans were grown overnight and washed in normal saline. Four groups of mice were treated through the lateral tail vein with the following preparations: (i) 1×PBS alone; (ii) 1×10^6 cfu of C. albicans cells pre-incubated with 50 μg of CaS1; (iii) 1×10^6 cfu of C. albicans cells pre-incubated with 100 μg of CaS1; (iv) 1×10^6 cfu of C. albicans cells pre-incubated with anti-CaENO1 IgY. Mice were monitored for survival at 1 day intervals for 10 days. All treatments and handling of mice were carried out according to animal experimental protocols approved by the Institutional Animal Care and Use Committee of Taipei Medical University.
1×10^6 cells of C. albicans solutions were mixed with 100 μg of each of the anti-CaENO1 IgY, scFv CaS1 and control scFv and then injected into ICR mice (5 mice for each group).
We evaluated the survival rate of the CaS1 on animal model. Initially ICR mice were tail-vein injected with 1×10^6 cells of C. albicans with PBS alone or cells pre-incubated with CaS1 (10 and 100 μg) for one hour at 37° C. […] Anti-Deinagkistrodon acutus scFv (anti-DA) is an antibody to snake venom, which was used as an unrelated scFv control.

B1: CaS1 scFv: anti-CaENO1 scFv monoclonal antibody from chicken phage library; light chain SEQ ID NO:11, heavy chain SEQ ID NO:12 (antibody, V domains shown)
VH: TVTLDESGGGLQTPRGALSLVCKASGFTFIDYGMQWVRQAPGKGLEWVAGIGSSGSSTNYGAAVKGRATISRDDGQSTVRLQLNNLRAEDTGTYYCAKSAGGYCVNGAGCNGGSIDAWGHGTEVIVSS
VL: ALTQPSSVSANLGGTVKITCSGGSGSYGWYQQKSPGSAPVTVIYSNNQRPSNIPSRFSGSPSGSTGTLTITGVQADDEAVYFCGSRDSSYVGVFGAGTTLTVL
modifications: scFv linker; amino acid sequence comprised in a heavy chain of an anti-CaENO1 scFv monoclonal antibody (CaS1); amino acid sequence comprised in a light chain of an anti-CaENO1 scFv monoclonal antibody (CaS1)
- C. albicans growth on YPD agar plate (C. albicans [1]): decreased C. albicans growth
- C. albicans growth on YPD agar plate (C. albicans [1]; listed as CaS1): attenuated the growth
- Binding to alpha-enolase on the surface of C. albicans (immunofluorescence) [2]: bind
- Binding activity to recombinant CaENO1 on ELISA (CaENO1): concentration dependent
- KD by ELISA (CaENO1; recombinant CaENO1 coated, KD or EC50 from OD percentage): 0.498 µg/mL
- Kd (CaENO1; recombinant CaENO1 coated, KD or EC50 from OD percentage, read-out: KD by ELISA): 18.8 nM
- survival rate (C. albicans [3]; 10 μg pre-incubated with 1×10^6 cells of C. albicans, tail-vein): 40%
- survival rate (C. albicans [3]; 100 μg mixed with 1×10^6 cells of C. albicans, 10 days): 80%
- Protection against lethal challenge of C. albicans in mice (C. albicans [3]): partial protect activity; also recorded: significant protective activity
- Protection against lethal challenge of C. albicans in mice (C. albicans [3]; listed as CaS1 antibody): prolonged the survival time
